Experimental data published in article PMC4608377, “Substrate specificity and transport mechanism of amino-acid transceptor Slimfast from Aedes aegypti” (Nature Communications, 2015).

What was measured:
Conditions in all cases: high-affinity site of two-site fit (apparent dissociation constant); 98 mM Na+ buffer; holding voltage -50 mV
[1] = substrate: NCCC[C@H](N)C(=O)O; test: cells, lysate or membranes
[2] = substrate: N[C@@H](Cc1ccccc1)C(=O)O; test: two-electrode voltage clamp, substrate-induced currents in Xenopus oocytes, two-site saturation fit; type: cell-based, Aedes aegypti
[3] = substrate: N=C(N)NCCC[C@H](N)C(=O)O; test: as above; type: cell-based, Aedes aegypti

B1: AaSlif (=AaCAT3; Slimfast) (Aedes aegypti) (protein)
chain: MRQGGRIDRFWIALTRKKRNEDDGSDSQLARVLSLLDLTGLGVGSTLGLGVYVLAGSVAYEQAGPAVVISFLVAAVASAIAALCYAEFAARVPKAGSAYIYSYVSIGEFAAFTIGWNLILEYVIGTSSVARGMSGYIDELAGKKISTALKETMGMNVDFLSDYPDFFSFVVVLILAALLAYGVKESTLMNNIFTGVNLCVIAIVLVAGGMNCDPANWMIKPEDIPKGIDAGVGGFAPYGFAGIMAGAAKCFYGFVGFDCIATTGEEAKNPSRNIPLAIVISLIIIFLAYFGISTVLTMALPYYLQNPDAPFPHLFEQLEWHAIKWIVSIGAIFALCTSLLGAMFPLPRVLYAMSTDGIIYKKLRTVHPKTQTPVLATILAGLLAATMAMLFNLQQLIDMMSIGTLLAYTIVAVSVLVLRYEDQTLMQSATVTIPNVFRQVFNVDKLKSPTTLSSSIVKFGICIFALLVCAVCTILVLATDELSAEYPGTLAAISVLGACMVFLIIVTALQPTENTKLTFKVPLVPLLPMLSVFFNLYLMFQLDAGTWVRFAVWIVIGYLIYFTYGIKHSVEGAIAKQAAVNGNGITIVKNGIDNNAFDGSNDKFVSTVPAENPRKSSKNSYSLNNE
notes: full length, 626 residues (1,881-nt ORF); Xenopus codon-optimised (synonymous) in pXOOM, without tag or with C-terminal eGFP (used interchangeably); cRNA expressed in Xenopus laevis oocytes
K0.5 [1]: 13.8 ± 6.2 µM | K0.5 [2]: 15.6 ± 8.5 µM | K0.5 [3]: 5.2 ± 1.4 µM
